From IntAct's records for PubMed 14551211

B1: ATP-dependent DNA helicase II subunit 2 (Saccharomyces cerevisiae), Q04437 (parent)
chain: MSSESTTFIVDVSPSMMKNNNVSKSMAYLEYTLLNKSKKSRKTDWISCYLANCPVSENSQEIPNVFQIQSFLAPVTTTATIGFIKRLKQYCDQHSHDSSNEGLQSMIQCLLVVSLDIKQQFQARKILKQIVVFTDNLDDLDITDEEIDLLTEELSTRIILIDCGKDTQEERKKSNWLKLVEAIPNSRIYNMNELLVEITSPATSVVKPVRVFSGELRLGADILSTQTSNPSGSMQDENCLCIKVEAFPATKAVSGLNRKTAVEVEDSQKKERYVGVKSIIEYEIHNEGNKKNVSEDDQSGSSYIPVTISKDSVTKAYRYGADYVVLPSVLVDQTVYESFPGLDLRGFLNREALPRYFLTSESSFITADTRLGCQSDLMAFSALVDVMLENRKIAVARYVSKKDSEVNMCALCPVLIEHSNINSEKKFVKSLTLCRLPFAEDERVTDFPKLLDRTTTSGVPLKKETDGHQIDELMEQFVDSMDTDELPEIPLGNYYQPIGEVTTDTTLPLPSLNKDQEENKKDPLRIPTVFVYRQQQVLLEWIHQLMINDSREFEIPELPDSLKNKISPYTHKKFDSTKLVEVLGIKKVDKLKLDSELKTELEREKIPDLETLLKRGEQHSRGSPNNSNN

Variants of: B1
Settings: with sir4_yeast SIR4, P11978
sir4_yeast SIR4, P11978, sequence (P11978 whole entry): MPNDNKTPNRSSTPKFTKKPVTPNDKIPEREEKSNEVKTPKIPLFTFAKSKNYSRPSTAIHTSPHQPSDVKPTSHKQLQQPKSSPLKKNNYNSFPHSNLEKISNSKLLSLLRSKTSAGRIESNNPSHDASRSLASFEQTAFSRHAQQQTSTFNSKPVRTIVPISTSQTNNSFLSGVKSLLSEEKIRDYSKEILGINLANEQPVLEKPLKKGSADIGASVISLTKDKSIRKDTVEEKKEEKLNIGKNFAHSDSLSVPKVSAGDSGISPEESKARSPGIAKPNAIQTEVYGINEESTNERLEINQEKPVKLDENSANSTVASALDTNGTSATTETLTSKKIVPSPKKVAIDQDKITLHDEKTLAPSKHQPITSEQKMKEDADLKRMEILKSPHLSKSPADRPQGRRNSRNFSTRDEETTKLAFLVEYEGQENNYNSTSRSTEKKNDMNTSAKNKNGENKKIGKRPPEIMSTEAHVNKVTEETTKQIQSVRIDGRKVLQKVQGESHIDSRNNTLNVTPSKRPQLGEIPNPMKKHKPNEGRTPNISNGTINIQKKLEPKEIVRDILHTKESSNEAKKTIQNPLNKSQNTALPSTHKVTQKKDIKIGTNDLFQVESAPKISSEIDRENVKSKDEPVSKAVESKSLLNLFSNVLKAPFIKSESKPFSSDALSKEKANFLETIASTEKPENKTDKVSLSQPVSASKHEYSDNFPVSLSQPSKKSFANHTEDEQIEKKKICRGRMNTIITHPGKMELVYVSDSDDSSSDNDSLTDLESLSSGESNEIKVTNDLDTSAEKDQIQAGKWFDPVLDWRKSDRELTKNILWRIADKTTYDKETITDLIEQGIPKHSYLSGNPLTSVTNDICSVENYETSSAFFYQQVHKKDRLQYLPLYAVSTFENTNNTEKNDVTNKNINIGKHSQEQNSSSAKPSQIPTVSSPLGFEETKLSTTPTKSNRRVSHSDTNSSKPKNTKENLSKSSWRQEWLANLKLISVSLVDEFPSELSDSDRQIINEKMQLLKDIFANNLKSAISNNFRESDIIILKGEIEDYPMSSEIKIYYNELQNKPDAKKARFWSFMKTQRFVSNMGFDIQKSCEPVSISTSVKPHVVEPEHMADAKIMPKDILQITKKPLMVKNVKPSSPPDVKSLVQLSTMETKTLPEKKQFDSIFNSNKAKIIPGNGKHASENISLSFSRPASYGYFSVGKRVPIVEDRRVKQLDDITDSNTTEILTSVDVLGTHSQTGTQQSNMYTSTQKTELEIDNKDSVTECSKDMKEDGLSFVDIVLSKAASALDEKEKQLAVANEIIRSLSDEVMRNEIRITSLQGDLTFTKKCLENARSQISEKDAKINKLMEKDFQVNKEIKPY

Row | effect of a mutation on the interaction | Variant
1 | decreasing interaction | D441G
2 | decreasing interaction | P437A;F438A
